In paper PMC6751202, “An aggregon in conductin/axin2 regulates Wnt/β-catenin signaling and holds potential for cancer therapy” (Nature Communications, 2019):

Target: the molecule itself
Assay: native gel or EMSA; recombinant GST-RGS Cdt and GST-RGS Cdt QV-PS purified from bacteria; PAGE under non-denaturing conditions, Western blot

B1: GST-RGS Cdt (domain or fragment, mouse, UniProt O88566 67-208, looked up)
chain: GRASPDSPLTRWTKSLHSLLGDQDGAYLFRTFLEREKCVDTLDFWFACNGFRQMNLKDTKTLRVAKAIYKRYIENNSVVSKQLKPATKTYIRDGIKKQQIGSVMFDQAQTEIQAVMEENAYQVFLTSDIYLEYVRSGGENTA
notes: RGS domain of mouse conductin/axin2, amino acids 67-208; Cloned into pGEX-6P-1, which as far as I know puts GST at the N-terminus; GST itself can dimerise; also called isolated conductin RGS domain; recombinant GST-RGS Cdt; source: Rosetta (DE3) bacteria, purified (glutathione beads, eluted with free glutathione)
B1: binds.
